Experimental data taken from patent US20200024322A1 (Eli Lilly, published 2020).
Residue numbers refer to the chain shown, from its start. Numbered stars: 1 amine (or outer) side, 2 acyl side, 3 side chain; on linkers, the order of the positions; unused ones are H or OH. Square brackets hold non-standard residues; d marks the D form. Side chains are listed from the residue outwards. Ends that are not written are not given here. * marks the point of attachment. C20 diacid = O=C(O)CCCCCCCCCCCCCCCCCCC(=O)*; C18 diacid = O=C(O)CCCCCCCCCCCCCCCCC(=O)*; γGlu = O=C(O)[C@H](CCC(=O)[*:2])N[*:1]; AEEA = NCCOCCOCC(=O)O; Aib = CC(C)(N)C(=O)O

T1: human GIP receptor (human, UniProt P48546 22-466)
T1 construct: whole, on cells; also called hGIPR; hGIP-R
T1 sequence (looked up): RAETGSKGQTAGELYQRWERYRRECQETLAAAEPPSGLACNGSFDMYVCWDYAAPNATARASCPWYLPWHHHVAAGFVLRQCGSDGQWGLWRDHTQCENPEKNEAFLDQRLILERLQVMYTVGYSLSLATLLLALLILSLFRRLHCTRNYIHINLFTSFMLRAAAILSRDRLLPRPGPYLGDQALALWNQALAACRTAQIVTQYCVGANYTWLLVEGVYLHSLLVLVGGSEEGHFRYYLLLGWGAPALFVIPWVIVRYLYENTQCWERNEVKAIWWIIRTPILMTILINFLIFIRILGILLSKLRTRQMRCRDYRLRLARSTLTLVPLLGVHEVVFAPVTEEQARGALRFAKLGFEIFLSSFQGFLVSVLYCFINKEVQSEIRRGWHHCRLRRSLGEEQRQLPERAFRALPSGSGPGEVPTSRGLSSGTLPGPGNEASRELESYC

B1: Example 289 (peptide)
peptide: YXEGTFTSDYSIXLDKKAQXEFIEYLIAGGPSSGAPPPS
modifications: Aib2; αMeL13; K17((2-[2-(2-Amino-ethoxy)-ethoxy]-acetyl)2-(γ-Glu)-CO-(CH2)18-CO2H); Aib20; C-terminal NH2
notes: also called GG-731
B2: Example 291 (peptide)
peptide: B1 peptide with Y1X, K16X, E21A, E24X
modifications: D-Tyr1; Aib2; αMeL13; Orn16; K17((2-[2-(2-Amino-ethoxy)-ethoxy]-acetyl)2-(γ-Glu)-CO-(CH2)18-CO2H); Aib20; D-Glu24; C-terminal NH2
B3: Example 342 (peptide)
peptide: B1 peptide with Y1X, K16E
modifications: D-Tyr1; Aib2; αMeL13; K17((2-[2-(2-Amino-ethoxy)-ethoxy]-acetyl)2-(γ-Glu)-CO-(CH2)18-CO2H); Aib20; C-terminal NH2
B4: Example 357 (peptide)
peptide: XXEGTFTSDYSIXLDXKAQXAFIXYLIEGGPSSGAPPPS
modifications: D-Tyr1; Aib2; αMeL13; Orn16; K17((2-[2-(2-Amino-ethoxy)-ethoxy]-acetyl)2-(γ-Glu)-CO-(CH2)18-CO2H); Aib20; D-Glu24; C-terminal NH2
B5: Example 331 (peptide)
peptide: B1 peptide with K16E
modifications: Aib2; αMeL13; K17((2-[2-(2-Amino-ethoxy)-ethoxy]-acetyl)2-(γ-Glu)-CO-(CH2)18-CO2H); Aib20; C-terminal NH2
B6: Example 354 (peptide)
peptide: B4 peptide with A21E, E28A
modifications: D-Tyr1; Aib2; αMeL13; Orn16; K17((2-[2-(2-Amino-ethoxy)-ethoxy]-acetyl)2-(γ-Glu)-CO-(CH2)18-CO2H); Aib20; D-Glu24; C-terminal NH2
B7: Example 338 (peptide)
peptide: B1 peptide with Y1F
modifications: Aib2; αMeL13; K17((2-[2-(2-Amino-ethoxy)-ethoxy]-acetyl)2-(γ-Glu)-CO-(CH2)18-CO2H); Aib20; C-terminal NH2
B8: Example 328 (peptide)
peptide: B4 peptide with X1F, X16K, X24E, G29A
modifications: Aib2; αMeL13; K17((2-[2-(2-Amino-ethoxy)-ethoxy]-acetyl)2-(γ-Glu)-CO-(CH2)16-CO2H); Aib20; C-terminal NH2
B9: Example 344 (peptide)
peptide: B1 peptide with K16E, E21D
modifications: Aib2; αMeL13; K17((2-[2-(2-Amino-ethoxy)-ethoxy]-acetyl)2-(γ-Glu)-CO-(CH2)18-CO2H); Aib20; C-terminal NH2
B10: Example 320 (peptide)
peptide: Y[Aib]EGTFTSDYSILLDKK([AEEA-AEEA-γGlu-C18 diacid])AQ[Aib]DFIEYLIEGGPSSG-NH2
modifications: N-terminus assumed
SMILES: CC[C@H](C)[C@H](NC(=O)[C@H](CC(C)C)NC(=O)[C@H](Cc1ccc(O)cc1)NC(=O)[C@H](CCC(=O)O)NC(=O)[C@@H](NC(=O)[C@H](Cc1ccccc1)NC(=O)[C@H](CC(=O)O)NC(=O)C(C)(C)NC(=O)[C@H](CCC(N)=O)NC(=O)[C@H](C)NC(=O)[C@H](CCCCNC(=O)COCCOCCNC(=O)COCCOCCNC(=O)CC[C@H](NC(=O)CCCCCCCCCCCCCCCCC(=O)O)C(=O)O)NC(=O)[C@H](CCCCN)NC(=O)[C@H](CC(=O)O)NC(=O)[C@H](CC(C)C)NC(=O)[C@H](CC(C)C)NC(=O)[C@@H](NC(=O)[C@H](CO)NC(=O)[C@H](Cc1ccc(O)cc1)NC(=O)[C@H](CC(=O)O)NC(=O)[C@H](CO)NC(=O)[C@@H](NC(=O)[C@H](Cc1ccccc1)NC(=O)[C@@H](NC(=O)CNC(=O)[C@H](CCC(=O)O)NC(=O)C(C)(C)NC(=O)[C@@H](N)Cc1ccc(O)cc1)[C@@H](C)O)[C@@H](C)O)[C@@H](C)CC)[C@@H](C)CC)C(=O)N[C@@H](CCC(=O)O)C(=O)NCC(=O)NCC(=O)N1CCC[C@H]1C(=O)N[C@@H](CO)C(=O)N[C@@H](CO)C(=O)NCC(N)=O
B11: Example 269 (peptide)
peptide: Y[Aib]EGTFTSDYSILLDEK([AEEA-AEEA-γGlu-C18 diacid])AQ[Aib]AFIEYLIEGG-NH2
modifications: N-terminus assumed
SMILES: CC[C@H](C)[C@H](NC(=O)[C@H](CC(C)C)NC(=O)[C@H](Cc1ccc(O)cc1)NC(=O)[C@H](CCC(=O)O)NC(=O)[C@@H](NC(=O)[C@H](Cc1ccccc1)NC(=O)[C@H](C)NC(=O)C(C)(C)NC(=O)[C@H](CCC(N)=O)NC(=O)[C@H](C)NC(=O)[C@H](CCCCNC(=O)COCCOCCNC(=O)COCCOCCNC(=O)CC[C@H](NC(=O)CCCCCCCCCCCCCCCCC(=O)O)C(=O)O)NC(=O)[C@H](CCC(=O)O)NC(=O)[C@H](CC(=O)O)NC(=O)[C@H](CC(C)C)NC(=O)[C@H](CC(C)C)NC(=O)[C@@H](NC(=O)[C@H](CO)NC(=O)[C@H](Cc1ccc(O)cc1)NC(=O)[C@H](CC(=O)O)NC(=O)[C@H](CO)NC(=O)[C@@H](NC(=O)[C@H](Cc1ccccc1)NC(=O)[C@@H](NC(=O)CNC(=O)[C@H](CCC(=O)O)NC(=O)C(C)(C)NC(=O)[C@@H](N)Cc1ccc(O)cc1)[C@@H](C)O)[C@@H](C)O)[C@@H](C)CC)[C@@H](C)CC)C(=O)N[C@@H](CCC(=O)O)C(=O)NCC(=O)NCC(N)=O
B12: Example 297 (peptide)
peptide: Y[Aib]EGTFTSDYSILLDKK([AEEA-AEEA-γGlu-C18 diacid])AQ[Aib]EFIEYLIAGG-NH2
modifications: N-terminus assumed
SMILES: CC[C@H](C)[C@H](NC(=O)[C@H](CC(C)C)NC(=O)[C@H](Cc1ccc(O)cc1)NC(=O)[C@H](CCC(=O)O)NC(=O)[C@@H](NC(=O)[C@H](Cc1ccccc1)NC(=O)[C@H](CCC(=O)O)NC(=O)C(C)(C)NC(=O)[C@H](CCC(N)=O)NC(=O)[C@H](C)NC(=O)[C@H](CCCCNC(=O)COCCOCCNC(=O)COCCOCCNC(=O)CC[C@H](NC(=O)CCCCCCCCCCCCCCCCC(=O)O)C(=O)O)NC(=O)[C@H](CCCCN)NC(=O)[C@H](CC(=O)O)NC(=O)[C@H](CC(C)C)NC(=O)[C@H](CC(C)C)NC(=O)[C@@H](NC(=O)[C@H](CO)NC(=O)[C@H](Cc1ccc(O)cc1)NC(=O)[C@H](CC(=O)O)NC(=O)[C@H](CO)NC(=O)[C@@H](NC(=O)[C@H](Cc1ccccc1)NC(=O)[C@@H](NC(=O)CNC(=O)[C@H](CCC(=O)O)NC(=O)C(C)(C)NC(=O)[C@@H](N)Cc1ccc(O)cc1)[C@@H](C)O)[C@@H](C)O)[C@@H](C)CC)[C@@H](C)CC)C(=O)N[C@@H](C)C(=O)NCC(=O)NCC(N)=O
B13: Example 271 (peptide)
peptide: Y[Aib]EGTFTSDYSILLDKK([AEEA-AEEA-γGlu-C18 diacid])AQ[Aib]EFIEYLIEGG-NH2
modifications: N-terminus assumed
SMILES: CC[C@H](C)[C@H](NC(=O)[C@H](CC(C)C)NC(=O)[C@H](Cc1ccc(O)cc1)NC(=O)[C@H](CCC(=O)O)NC(=O)[C@@H](NC(=O)[C@H](Cc1ccccc1)NC(=O)[C@H](CCC(=O)O)NC(=O)C(C)(C)NC(=O)[C@H](CCC(N)=O)NC(=O)[C@H](C)NC(=O)[C@H](CCCCNC(=O)COCCOCCNC(=O)COCCOCCNC(=O)CC[C@H](NC(=O)CCCCCCCCCCCCCCCCC(=O)O)C(=O)O)NC(=O)[C@H](CCCCN)NC(=O)[C@H](CC(=O)O)NC(=O)[C@H](CC(C)C)NC(=O)[C@H](CC(C)C)NC(=O)[C@@H](NC(=O)[C@H](CO)NC(=O)[C@H](Cc1ccc(O)cc1)NC(=O)[C@H](CC(=O)O)NC(=O)[C@H](CO)NC(=O)[C@@H](NC(=O)[C@H](Cc1ccccc1)NC(=O)[C@@H](NC(=O)CNC(=O)[C@H](CCC(=O)O)NC(=O)C(C)(C)NC(=O)[C@@H](N)Cc1ccc(O)cc1)[C@@H](C)O)[C@@H](C)O)[C@@H](C)CC)[C@@H](C)CC)C(=O)N[C@@H](CCC(=O)O)C(=O)NCC(=O)NCC(N)=O
B14: Example 319 (peptide)
peptide: Y[Aib]EGTFTSDYSILLDKK([AEEA-AEEA-γGlu-C20 diacid])AQ[Aib]EFIEYLIAGGPSSGAPPPS-NH2
modifications: N-terminus assumed
SMILES: CC[C@H](C)[C@H](NC(=O)[C@H](CC(C)C)NC(=O)[C@H](Cc1ccc(O)cc1)NC(=O)[C@H](CCC(=O)O)NC(=O)[C@@H](NC(=O)[C@H](Cc1ccccc1)NC(=O)[C@H](CCC(=O)O)NC(=O)C(C)(C)NC(=O)[C@H](CCC(N)=O)NC(=O)[C@H](C)NC(=O)[C@H](CCCCNC(=O)COCCOCCNC(=O)COCCOCCNC(=O)CC[C@H](NC(=O)CCCCCCCCCCCCCCCCCCC(=O)O)C(=O)O)NC(=O)[C@H](CCCCN)NC(=O)[C@H](CC(=O)O)NC(=O)[C@H](CC(C)C)NC(=O)[C@H](CC(C)C)NC(=O)[C@@H](NC(=O)[C@H](CO)NC(=O)[C@H](Cc1ccc(O)cc1)NC(=O)[C@H](CC(=O)O)NC(=O)[C@H](CO)NC(=O)[C@@H](NC(=O)[C@H](Cc1ccccc1)NC(=O)[C@@H](NC(=O)CNC(=O)[C@H](CCC(=O)O)NC(=O)C(C)(C)NC(=O)[C@@H](N)Cc1ccc(O)cc1)[C@@H](C)O)[C@@H](C)O)[C@@H](C)CC)[C@@H](C)CC)C(=O)N[C@@H](C)C(=O)NCC(=O)NCC(=O)N1CCC[C@H]1C(=O)N[C@@H](CO)C(=O)N[C@@H](CO)C(=O)NCC(=O)N[C@@H](C)C(=O)N1CCC[C@H]1C(=O)N1CCC[C@H]1C(=O)N1CCC[C@H]1C(=O)N[C@@H](CO)C(N)=O

The binders below were run against T1, human GIP receptor (assay: [125I]-GIP competition SPA, hGIPR membranes).
Method: The binding buffer contains 25 mM HEPES, pH 7.4, 2.5 mM CaCl₂, 1 mM MgCl₂, 0.1% (w/v) bacitracin, 0.003% (w/v) TWEEN®-20, and Roche Complete™ Protease Inhibitors without EDTA. […] Plates are sealed and mixed on a plate shaker (setting 6) for 1 minute and read with a PerkinElmer Trilux MicroBeta® scintillation counter after 2.5 to 12 hours of incubation/settling time at room temperature.
(§1) Data are analyzed using four-parameter (curve maximum, curve minimum, IC₅₀, Hill slope) nonlinear regression routines (Genedata Screener, version 12.0.4, Genedata AG, Basal, Switzerland). […] Values for Kᵢ are reported as the geometric mean, with error expressed as the standard error of the mean (SEM) and n is equal to the number of independent replicates (determined in assays performed on different days). Geometric Means are calculated as follows: […]

Binder | Ki
B1 | 0.0457 nM
B2 | 0.129 nM
B3 | 0.129 nM
B4 | 0.316 nM
B5 | 0.0851 nM
B6 | 0.175 nM
B7 | 0.0831 nM
B8 | 0.136 nM
B9 | 0.0507 nM
B10 | 0.136 nM
B11 | 0.152 nM
B12 | 0.0958 nM
B13 | 0.107 nM
B14 | 0.0349 nM

These binders were tested against T2, human GLP-1 receptor (human, UniProt P43220 24-463) (assay: [125I]-GLP-1 competition SPA, hGLP-1R membranes).
T2 construct: whole, on cells; also called hGLP-1R; hGLP1R
Method: The binding buffer contains 25 mM HEPES, pH 7.4, 2.5 mM CaCl₂, 1 mM MgCl₂, 0.1% (w/v) bacitracin, 0.003% (w/v) TWEEN®-20, and Roche Complete™ Protease Inhibitors without EDTA.
as §1

Binder | Ki
B1 | 2.63 nM
B2 | 3.16 nM
B3 | 15.4 nM
B4 | 7.02 nM
B5 | 11.4 nM
B6 | 7.85 nM
B7 | 3.23 nM
B8 | 3.98 nM
B9 | 14.8 nM
B10 | 5.17 nM
B11 | 7.1 nM
B12 | 2.98 nM
B13 | 5.09 nM
B14 | 3.61 nM
